{
  "source": "patent EP1441764B1",
  "biological_target": "C-RANKL protein (mouse RANKL fragment with N-terminal cysteine-containing linker GPGCGGG and hexahistidine tag) (mouse) (UniProt O35235)",
  "sequence (O35235 other isoform, or with tags, fused parts or gaps limits assumed, form in doubt)": "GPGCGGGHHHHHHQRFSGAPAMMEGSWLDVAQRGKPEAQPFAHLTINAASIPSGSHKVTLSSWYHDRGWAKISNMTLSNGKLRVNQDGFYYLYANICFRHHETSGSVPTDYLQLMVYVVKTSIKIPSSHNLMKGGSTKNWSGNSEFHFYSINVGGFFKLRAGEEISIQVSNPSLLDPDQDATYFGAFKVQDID",
  "assay": "ELISA on plates coated with C-RANKL 10 ug/ml, serial dilutions of RANK-Fc, anti-Fc-HRP detection",
  "note": "pEC50: −log10 of the molar value.",
  "data": [
    {"substance": "purified RANK-Fc fusion protein", "values": [
      {"measurement": "pEC50", "result": "8.52 to 9.00"}
    ]}
  ]
}
